Where two headings read alike, the source gives them in different places.
What was measured:
[1] = target: DnaJ-A1-pTyr381 ∆C peptide (human) (UniProt P31689); experiment: FP
[2] = target: Shc1-pTyr239; experiment: FP
[3] = target: DnaJ-A1-pTyr381 ∆N peptide (human) (UniProt P31689); experiment: FP
[4] = target: VCP-pTyr805-tail7; experiment: FP
[5] = target: Shc1-pTyr317; experiment: FP
[6] = target: EGFR-pTyr954; experiment: FP
[7] = target: EGFR-pTyr1086; experiment: FP
[8] = target: mini peptide GGpYGG; experiment: fluorescence polarisation
[9] = target: MidT-pTyr324; experiment: FP; conditions: natural protein

L. anisa LeSH1b (Lani_2495)
Kd ([1]; natural protein): > 50 µM
Kd ([2]; natural protein): > 50 µM
Kd ([3]; natural protein): > 50 µM
Kd ([4]; natural protein): > 50 µM
Kd ([5]; natural protein): > 50 µM

L. anisa LeSH2a (Lani_0711)
Kd ([2]; natural protein): 3.05 µM
Kd ([6]; natural protein): 7.98 µM
Kd ([4]; natural protein): 2.53 µM

L. anisa LeSH2b (Lani_WP_019234638)
Kd ([1]; natural protein): 16.5 µM
Kd ([2]; natural protein): 38.1 µM
Kd ([3]; natural protein): 22.6 µM
Kd ([6]; natural protein): > 50 µM
Kd ([4]; natural protein): 31.2 µM
Kd ([5]; natural protein): 40.6 µM
Kd ([7]; natural protein): > 50 µM

L. dumoffii LUSH (natural protein)
Kd [8]: 0.38 µM

L. dumoffii LeSH1a
Kd ([1]; natural protein): > 50 µM
Kd ([2]; natural protein): > 50 µM
Kd ([3]; natural protein): > 50 µM
Kd [9]: > 50 µM
Kd ([4]; natural protein): > 50 µM
Kd ([5]; natural protein): > 50 µM

L. dumoffii LeSH2
Kd ([2]; natural protein): 2.46 µM
Kd ([4]; natural protein): 9.1 µM
Kd ([5]; natural protein): 9.35 µM
Kd ([7]; natural protein): 14.7 µM

L. dumoffii LeSH2 (natural protein)
Kd [8]: 14.7 µM

L. longbeachae LeSH (natural protein)
Kd [8]: 3.6 µM

L. pneumophila DoSH C-SH2
Kd [3]: 31.9 µM
Kd [7]: 12.5 µM

L. pneumophila LeSH2
Kd [1]: 1.09 µM
Kd [2]: 3.66 µM
Kd [6]: 44.6 µM
Kd [5]: 8.77 µM
Kd [7]: 31.4 µM

L. waltersii LeSH5 tandem SH2
Kd [1]: 28.7 µM
Kd [2]: 6.17 µM
Kd [3]: 15 µM
Kd [5]: 13.8 µM
Kd [7]: 33.5 µM

Src SH2 TrM (superbinder)
Kd [4]: 1.2 µM
